From US20260062442A1, “COMPOSITIONS AND METHODS FOR PURIFYING ANTIGEN-BINDING ANTIBODY FRAGMENTS USING PEPTIDE LIGANDS” (North Carolina State University, priority 2022, published 2026)
Ends that are not written are not given here.

What was measured:
human polyclonal Fab [1] = experiment: Dynamic binding of human polyclonal Fab on peptide-Toyopearl resins (chromatograms); details: residence time 2 min; for amount of human Fab that flowed through: human Fab at 2 mg/mL in PBS; for binding of human polyclonal Fab (chromatogram): human polyclonal Fab at 2 mg/mL in PBS
Procedure: (§1) Dynamic binding of human Fab-κ and Fab-λ in non-competitive condition. The peptides listed in Table 3 were synthesized on Toyopearl resins as described herein, and the resulting adsorbents were packed into 0.1 mL (30×2.1 mm) columns, installed on a Waters Alliance 2695 HPLC system (Milford, MA), and equilibrated with PBS at pH 7.4. […] The subsequent chromatographic steps of washing with PBS, elution with 0.2 M acetate buffer pH 4, regeneration with 0.1 M glycine buffer pH 2.5, and equilibration with PBS were all performed at 348 cm/h. The dynamic binding protocol was repeated with 50 μL of human Fab-κ and Fab-λ, both at 1 mg/mL in PBS. The column effluent was continuously monitored at 280 nm by UV spectrophotometry. The yield was determined by peak area analysis and determined by taking the area of the elution peak divided by the flow-through, elution, and regeneration peak areas. Finally, the dynamic binding capacity at 10% flowthrough of […]-Toyopearl resin was measured via continuous loading of a solution of human polyclonal Fab at either 1, 2, or 5 mg/mL in PBS at the linear velocity of either 173, 87, or 35 cm/h, corresponding to the residence times (RT) of 1, 2, and 5 min, until reaching saturation of the adsorbent. The dynamic binding capacity of Protein L-agarose resin was measured via continuous loading of human polyclonal Fab at 1 mg/mL in PBS at the linear velocity of either 173 or 87 cm/h, corresponding to RT of 1 and 2 min, until reaching saturation of the adsorbent.
Secondary selection of Fab-binding peptide ligands via dynamic binding studies. The candidate ligands selected from library screening were conjugated to Toyopearl AF-Amino-650M resin and evaluated via Fab binding studies in dynamic mode. Toyopearl resin was selected for chromatographic evaluation owing to its low non-specific protein adsorption, low compressibility, and strong chemical stability. The residence time of 2 minutes (RT: 2 min) was adopted to mimic the loading conditions utilized in industrial bioprocessing. A solution of human polyclonal Fab at 2 mg/mL in PBS was adopted as feedstock to discern ligands that either bind all Fab or target selectively Fab-κ or Fab-λ; accordingly, the top ligands by elution peak area were subjected to further analysis with either pure k or λ subtypes. Finally, in line with library screening, A 0.2 M acetate buffer was utilized at pH 4 for Fab elution; this value of pH is sufficient to ensure high yield without compromising the integrity and bioactivity of the product. This represents a distinct advantage of peptide ligands with moderate affinity compared to high-affinity protein ligands; for comparison, Protein L as well as KappaSelect and LambdaFabSelect resins require elution at pH 2.5-3.

human Fab-κ = experiment: Dynamic binding of human Fab-κ in non-competitive condition on peptide-Toyopearl resins; details: κ and λ Fabs, 1 mg/mL in PBS, residence time 2 min
Procedure: as §1, with “The dynamic binding capacity of Protein L-agarose resin was measured via continuous loading of human polyclonal Fab at 1 mg/mL in PBS at the linear velocity of either 173 or 87 cm/h, corresponding to RT of 1 and 2 min, until reaching saturation of the adsorbent.” left out

[2] = biological target: engineered monoclonal Fab-κ (0.171 mg/mL in clarified CHO-K1 cell culture harvest); experiment: capture from CHO-K1 CCCF with engineered Fab 0.171 mg/mL, elution pH 2.5; yield by anti-human Fab ELISA
monoclonal Fab-κ = details: cited from earlier work
human polyclonal Fab [3] = experiment: Dynamic binding capacity at 10% breakthrough with human polyclonal Fab in PBS; details: RT of 2 min, range
Procedure: as §1, with “The dynamic binding capacity of Protein L-agarose resin was measured via continuous loading of human polyclonal Fab at 1 mg/mL in PBS at the linear velocity of either 173 or 87 cm/h, corresponding to RT of 1 and 2 min, until reaching saturation of the adsorbent.” left out

scFv13R4 = experiment: Purification of scFv from P. pastoris perfusate; details: scFv eluted at 0.1 M glycine pH 2.5, not at pH 4
Procedure: Preparation of spiked feedstock. A wild-type X33 P. pastoris strain was obtained from ThermoFisher Scientific as an agar stab. This stab was used to create freezer stocks, which were stored at −80° C. A vial from the freezer stock was thawed, plated on a yeast extract peptone dextrose (YPD) agar plate, and incubated at 30° C. A single colony was then used to inoculate a 1 L vented shake flask containing 100 mL of Buffered Glycerol-complex Medium (BMGY), and the flask was incubated at 250 rpm at 30° C. A 300 mL bioreactor connected to a perfusion device was prepared and inoculated with cells harvested from the shake flask. After an initial growth phase, the perfusion system was activated, and fluid was continuously extracted from the bioreactor at a rate of 1.5 vessel volumes per day (VVD) while retaining the cells. Simultaneously to activating the perfusion system, a 2% v/v methanol feedstock containing IgG at 0.5 mg/mL began to be fed continuously into the bioreactor at 1.5 VVD. […]
Purification of scFv from P. pastoris perfusate. […] Washing, elution, and regeneration steps were all performed at 0.5 mL/min (231 cm/h), while the effluent was continuously monitored by UV spectrophotometry at 280 nm. […] The collected fractions were analyzed via non-reducing SDS-PAGE analysis after concentration and diafiltration to PBS at pH 7.4 by a 10 kDa MWCO spin concentrator.

human Fab-κ (human) [4] = experiment: equilibrium adsorption isotherm on resin, Langmuir fit
[5] = biological target: human polyclonal Fab (human); experiment: as above
Certolizumab pegol [6] = experiment: capture from CHO-S CCCF spiked with Certolizumab 1 mg/mL, elution pH 4
[7] = biological target: human polyclonal Fab (human); experiment: dynamic binding capacity at 10% breakthrough, Fab 1 mg/mL in PBS, residence time 1 min
[8] = biological target: human polyclonal Fab (human); experiment: dynamic binding capacity at 10% breakthrough, Fab 1 mg/mL in PBS, residence time 2 min
[9] = biological target: human polyclonal Fab (human); experiment: dynamic binding capacity at 10% breakthrough, Fab 1 mg/mL in PBS, residence time 5 min
[10] = biological target: human polyclonal Fab (human); experiment: dynamic binding capacity at 10% breakthrough, Fab 2 mg/mL in PBS, residence time 2 min
[11] = biological target: human polyclonal Fab (human); experiment: dynamic binding capacity at 10% breakthrough, Fab 5 mg/mL in PBS, residence time 1 min
[12] = biological target: human polyclonal Fab (human); experiment: dynamic binding capacity at 10% breakthrough, Fab 5 mg/mL in PBS, residence time 2 min
human Fab-κ (human) [13] = experiment: dynamic binding on peptide-Toyopearl column, Fab 1 mg/mL in PBS, residence time 2 min
human Fab-λ (human) [14] = experiment: as above
[15] = biological target: human polyclonal IgG (human); experiment: capture of IgG 0.5 mg/mL from P. pastoris perfusate, elution pH 4; yield by Protein G HPLC
[16] = biological target: engineered monoclonal Fab-κ (0.171 mg/mL in clarified CHO-K1 cell culture harvest); experiment: capture from CHO-K1 CCCF with engineered Fab 0.171 mg/mL, elution pH 4; yield by anti-human Fab ELISA
[17] = biological target: human polyclonal Fab (human); experiment: capture from null CHO-S CCCF spiked with human Fab 1 mg/mL, elution pH 4; yield by anti-human Fab ELISA
Certolizumab pegol [18] = experiment: capture from null CHO-S CCCF spiked with Certolizumab 1 mg/mL, elution pH 4; yield by anti-human Fab ELISA
[19] = biological target: human polyclonal IgG (human); experiment: dynamic binding capacity at 10% breakthrough, P. pastoris perfusate with IgG 0.5 mg/mL, residence time 2 min
human Fab-κ (human) [20] = experiment: dynamic binding on peptide-Toyopearl column, Fab 1 mg/mL in PBS, residence time 2 min, elution pH 4; yield = elution peak area over total peak area
human Fab-λ (human) [21] = experiment: as above
[22] = biological target: human polyclonal Fab (human); experiment: dynamic binding on peptide-Toyopearl column, human Fab 2 mg/mL in PBS, residence time 2 min

With “HQNHHSTFRWEIY [C7, variant peptide ligand developed by Nascimento et al]” the “amount of human Fab that flowed through” value (human polyclonal Fab [1]) was 79%.

With IIHRRAFWWFPN the “fraction of the loaded Fab bound” value (human Fab-κ) was “approximately half”.

For “WHYNWQDVSDRQ [A5, variant peptide ligand developed by Nascimento et al]”, the “amount of human Fab that flowed through” value (human polyclonal Fab [1]) was 61%.

With Protein L-agarose resin the Yield [2] was 91%.

In the case of “WIPNSEFEHERTK [B1, peptide ligand for monoclonal Fab-κ identified by Nascimento et al]”, the “binding of human polyclonal Fab (chromatogram)” value (human polyclonal Fab [1]) is listed as “failed to bind” and the “affinity for two other monoclonal Fabs” value (monoclonal Fab-κ) is listed as “little-to-no affinity”.

In the case of FRWNFHRNTFFP, the “fraction of the loaded Fab bound” value (human Fab-κ) is reported as “approximately 90%”, the “binding of human polyclonal Fab (chromatogram)” value (human polyclonal Fab [1]) is reported as “very low flow-through peak area” and the DBC10% (human polyclonal Fab [3]) is reported as 6 to 16 mg/mL. For the same molecule, the “relative affinity for scFv vs Fab” value (scFv13R4) was “higher affinity for scFv than Fab”.

In the case of Protein L-Sepharose resin, the Kd (human Fab-κ (human) [4]) is reported as 30.9 nM and the Qmax (mg per mL of resin) (human Fab-κ (human) [4]) is reported as 20.7.

FRWNFHRNTFFP (also: C-terminus attached to Toyopearl AF-Amino-650M resin or ChemMatrix bead) gave a Kd (human Fab-κ (human) [4]) of 2050 nM, a Qmax (mg per mL of resin) (human Fab-κ (human) [4]) of 19 and a Kd [5] of 2160 nM. For the same molecule, the Qmax (mg per mL of resin) [5] was 20.4, the Yield (Certolizumab pegol [6]) was 96.5% and the DBC10% (mg Fab per mL of resin) [7] was 4.5. The DBC10% (mg Fab per mL of resin) [8] was 6, the DBC10% (mg Fab per mL of resin) [9] was 7 and the DBC10% (mg Fab per mL of resin) [10] was 10.9. For the same molecule, the DBC10% (mg Fab per mL of resin) [11] was 15.5, the DBC10% (mg Fab per mL of resin) [12] was 16.5 and the percent of the load bound (human Fab-κ (human) [13]) was 90%. It also gave a percent of the load bound (human Fab-λ (human) [14]) of 90%, a Yield [15] of 33% and a Yield [16] of 93.3%. For the same molecule, the Yield [17] was 94.1%, the Yield (Certolizumab pegol [18]) was 96% and the DBC10% (mg IgG per mL of resin) [19] was 13.4. For the same molecule, the DBC10% (mg IgG per mL resin) [19] was 13.4, the Fab-κ Yield (human Fab-κ (human) [20]) was 89% and the Fab-λ Yield (human Fab-λ (human) [21]) was 91%.

Molecule IIHRRAFWWFPN (also: C-terminus attached to Toyopearl AF-Amino-650M resin or ChemMatrix bead) has a Kd (human Fab-κ (human) [4]) of 5820 nM, a Qmax (mg per mL of resin) (human Fab-κ (human) [4]) of 11.9 and a Kd [5] of 5140 nM. For the same molecule, the Qmax (mg per mL of resin) [5] was 13.5, the Fab-κ Yield (human Fab-κ (human) [20]) was 55% and the Fab-λ Yield (human Fab-λ (human) [21]) was 66%.

For IRHHNIWFNTIA (also: C-terminus attached to Toyopearl AF-Amino-650M resin or ChemMatrix bead), the Fab-κ Yield (human Fab-κ (human) [20]) was 42% and the Fab-λ Yield (human Fab-λ (human) [21]) was 42%.

In the case of RWTIWPPNWHPP (also: C-terminus attached to Toyopearl AF-Amino-650M resin or ChemMatrix bead), the Fab-κ Yield (human Fab-κ (human) [20]) is reported as 40% and the Fab-λ Yield (human Fab-λ (human) [21]) is reported as 53%.

HQNHHSTFRWEIY (also: attached to Toyopearl resin, site not given here) gave a percent of human Fab that flowed through (unbound) [22] of 79%.

WHYNWQDVSDRQ (also: attached to Toyopearl resin, site not given here) gave a percent of human Fab that flowed through (unbound) [22] of 61%.
